From US20200157190A1

Key:
[1] = target: Antigen 1; assay: ELISA, supernatant 1 TO 16, Plate 1 (Antigen 1), column 6, BLANK 0.07
[2] = target: Antigen 2; assay: ELISA, supernatant 1 TO 16, Plate 2 (Antigen 2), column 6, BLANK 0.06
[3] = target: Antigen 1; assay: ELISA, supernatant 1 TO 4, Plate 1 (Antigen 1), column 6, BLANK 0.07
[4] = target: Antigen 2; assay: ELISA, supernatant 1 TO 256, Plate 2 (Antigen 2), column 6, BLANK 0.06
[5] = target: Antigen 2; assay: ELISA, supernatant 1 TO 4, Plate 2 (Antigen 2), column 6, BLANK 0.06
[6] = target: Antigen 2; assay: ELISA, supernatant UNDILUTED, Plate 2 (Antigen 2), column 6, BLANK 0.06
[7] = target: Antigen 2; assay: ELISA, supernatant 1 TO 64, Plate 2 (Antigen 2), column 6, BLANK 0.06
[8] = target: Antigen 1; assay: ELISA, supernatant 1 TO 64, Plate 1 (Antigen 1), column 6, BLANK 0.07
[9] = target: Antigen 2; assay: ELISA, supernatant 1 TO 4096, Plate 2 (Antigen 2), column 6, BLANK 0.06
[10] = target: Antigen 1; assay: ELISA, supernatant UNDILUTED, Plate 1 (Antigen 1), column 6, BLANK 0.07
[11] = target: Antigen 1; assay: ELISA, supernatant 1 TO 256, Plate 1 (Antigen 1), column 6, BLANK 0.07
[12] = target: Antigen 2; assay: ELISA, supernatant 1 TO 1024, Plate 2 (Antigen 2), column 6, BLANK 0.06
[13] = target: Antigen 1; assay: ELISA, supernatant 1 TO 1024, Plate 1 (Antigen 1), column 6, BLANK 0.07
[14] = target: Antigen 1; assay: ELISA, supernatant 1 TO 4096, Plate 1 (Antigen 1), column 6, BLANK 0.07
[15] = target: Antigen 1; assay: ELISA, supernatant 1 TO 1024, Plate 1 (Antigen 1), column 8, BLANK 0.07
[16] = target: Antigen 1; assay: ELISA, supernatant 1 TO 4, Plate 1 (Antigen 1), column 8, BLANK 0.07
[17] = target: Antigen 1; assay: ELISA, supernatant 1 TO 64, Plate 1 (Antigen 1), column 8, BLANK 0.07
[18] = target: Antigen 2; assay: ELISA, supernatant 1 TO 16, Plate 2 (Antigen 2), column 8, BLANK 0.07
[19] = target: Antigen 2; assay: ELISA, supernatant 1 TO 4, Plate 2 (Antigen 2), column 8, BLANK 0.07
[20] = target: Antigen 2; assay: ELISA, supernatant 1 TO 64, Plate 2 (Antigen 2), column 8, BLANK 0.07
[21] = target: Antigen 1; assay: ELISA, supernatant 1 TO 256, Plate 1 (Antigen 1), column 8, BLANK 0.07
[22] = target: Antigen 2; assay: ELISA, supernatant 1 TO 1024, Plate 2 (Antigen 2), column 8, BLANK 0.07
[23] = target: Antigen 2; assay: ELISA, supernatant UNDILUTED, Plate 2 (Antigen 2), column 8, BLANK 0.07
[24] = target: Antigen 2; assay: ELISA, supernatant 1 TO 256, Plate 2 (Antigen 2), column 8, BLANK 0.07
[25] = target: Antigen 1; assay: ELISA, supernatant 1 TO 16, Plate 1 (Antigen 1), column 8, BLANK 0.07
[26] = target: Antigen 1; assay: ELISA, supernatant UNDILUTED, Plate 1 (Antigen 1), column 8, BLANK 0.07
[27] = target: Antigen 1; assay: ELISA, supernatant 1 TO 4096, Plate 1 (Antigen 1), column 8, BLANK 0.07
[28] = target: Antigen 2; assay: ELISA, supernatant 1 TO 4096, Plate 2 (Antigen 2), column 8, BLANK 0.07
[29] = target: Antigen 1; assay: ELISA, supernatant UNDILUTED, Plate 1 (Antigen 1), column 10, BLANK 0.07
[30] = target: Antigen 2; assay: ELISA, supernatant 1 TO 1024, Plate 2 (Antigen 2), column 10, BLANK 0.07
[31] = target: Antigen 2; assay: ELISA, supernatant 1 TO 64, Plate 2 (Antigen 2), column 10, BLANK 0.07
[32] = target: Antigen 1; assay: ELISA, supernatant 1 TO 256, Plate 1 (Antigen 1), column 10, BLANK 0.07
[33] = target: Antigen 2; assay: ELISA, supernatant 1 TO 4096, Plate 2 (Antigen 2), column 10, BLANK 0.07
[34] = target: Antigen 1; assay: ELISA, supernatant 1 TO 16, Plate 1 (Antigen 1), column 10, BLANK 0.07
[35] = target: Antigen 1; assay: ELISA, supernatant 1 TO 4, Plate 1 (Antigen 1), column 10, BLANK 0.07
[36] = target: Antigen 1; assay: ELISA, supernatant 1 TO 1024, Plate 1 (Antigen 1), column 10, BLANK 0.07
[37] = target: Antigen 2; assay: ELISA, supernatant 1 TO 16, Plate 2 (Antigen 2), column 10, BLANK 0.07
[38] = target: Antigen 2; assay: ELISA, supernatant 1 TO 4, Plate 2 (Antigen 2), column 10, BLANK 0.07
[39] = target: Antigen 1; assay: ELISA, supernatant 1 TO 4096, Plate 1 (Antigen 1), column 10, BLANK 0.07
[40] = target: Antigen 2; assay: ELISA, supernatant 1 TO 256, Plate 2 (Antigen 2), column 10, BLANK 0.07
[41] = target: Antigen 1; assay: ELISA, supernatant 1 TO 64, Plate 1 (Antigen 1), column 10, BLANK 0.07
[42] = target: Antigen 2; assay: ELISA, supernatant UNDILUTED, Plate 2 (Antigen 2), column 10, BLANK 0.07

B1: Heavy Chain Construct 3 with Light Chain Construct 2 (VH1-VH2/VL2) (antibody)
heavy: QSVEESGGRLVTPGTPLTLTCTVSGFSLNTNAIRWVRQAPGKGLEWIGAIDASGNTYYASWAKGRFTISKTSTTVDLKITSPTTEDTATYFCNRFNTANIWGPGTLVTVSSGQPKAPSVFPLAPCCGDTPSSTVTLGCLVKGYLPEPVTVTWNSGTLTNGVRTFPSVRQSSGLYSLSSVVSVTSSSQPVTCNVAHPATNTKVDKTVAPSTCSKPMCPPPELLGGRPQPQPQPQPQPQPQPQPQPQPQPQPQPQPQPQSRQSLEESGGRLVSPGTPLTLTCTASGFSLSSNAMGWVRQAPGEGLEYIGIIRPGGSTYYASWAKGRFTISKTSSTTVDLKMTSLTTEDTATYFCARAWDIWGPGTLVTVSLGQPKAPSVFPLAPCCGDTPSSTVTLGCLVKGYLPEPVTVTWNSGTLTNGVRTFPSVRQSSGLYSLSSVVSVTSSSQPVTCNVAHPATNTKVDKTVAPSTCSKPTCPPPELLGGPSVFIFPPKPKDTLMISRTPEVTCVVVDVSQDDPEVQFTWYINNEQVRTARPPLREQQFNSTIRVVSTLPIAHQDWLRGKEFKCKVHNKALPAPIEKTISKARGQPLEPKVYTMGPPREELSSRSVSLACMINGFYPSDISVEWEKNGKAEDNYKTTPAVLDSDGSYFLYSKLSVPTSEWQRGDVFTCSVMHEALHNHYTQKSISRSPGK
light: AFELTQTPSSVEAAVGGTVTIRCQASQSISNQLSWYQQKPGQPPKRLIYRASTLASGVPARFKGSGSGTAFTLTISDLECADGATYYCQSFYYTDVIDYNAFGGGTEVVVTGDPVAPTVLIFPPAADQVATGTVTIVCVANKYFPDVTVTWEVDGTTQTTGIENSKTPQNSADCTYNLSSTLTLTSTQYNSHKEYTCKVTQGTTSVVQSFNRGDC
Binder B1 has an ELISA plate reading [1] of 0.07, an ELISA plate reading [2] of 0.67 and an ELISA plate reading [3] of 0.11. The ELISA plate reading [4] was 0.11, the ELISA plate reading [5] was 1.4 and the ELISA plate reading [6] was 2.04. It also gave an ELISA plate reading [7] of 0.26, an ELISA plate reading [8] of 0.09 and an ELISA plate reading [9] of 0.06. For the same binder, the ELISA plate reading [10] was 0.22, the ELISA plate reading [11] was 0.06 and the ELISA plate reading [12] was 0.08. It also gave an ELISA plate reading [13] of 0.06 and an ELISA plate reading [14] of 0.06.

B2: VH2-VH2 / VL2 (antibody)
heavy chain (VH2-CH1, PQ linker, VH2-CH1, hinge, CH2, CH3): QSLEESGGRLVSPGTPLTLTCTASGFSLSSNAMGWVRQAPGEGLEYIGIIRPGGSTYYASWAKGRFTISKTSSTTVDLKMTSLTTEDTATYFCARAWDIWGPGTLVTVSLGQPKAPSVFPLAPCCGDTPSSTVTLGCLVKGYLPEPVTVTWNSGTLTNGVRTFPSVRQSSGLYSLSSVVSVTSSSQPVTCNVAHPATNTKVDKTVAPSTCSKPTCPPPELLGGRPQPQPQPQPQPQPQPQPQPQPQPQPQPQPQPQSRQSLEESGGRLVSPGTPLTLTCTASGFSLSSNAMGWVRQAPGEGLEYIGIIRPGGSTYYASWAKGRFTISKTSSTTVDLKMTSLTTEDTATYFCARAWDIWGPGTLVTVSLGQPKAPSVFPLAPCCGDTPSSTVTLGCLVKGYLPEPVTVTWNSGTLTNGVRTFPSVRQSSGLYSLSSVVSVTSSSQPVTCNVAHPATNTKVDKTVAPSTCSKPTCPPPELLGGPSVFIFPPKPKDTLMISRTPEVTCVVVDVSQDDPEVQFTWYINNEQVRTARPPLREQQFNSTIRVVSTLPIAHQDWLRGKEFKCKVHNKALPAPIEKTISKARGQPLEPKVYTMGPPREELSSRSVSLACMINGFYPSDISVEWEKNGKAEDNYKTTPAVLDSDGSYFLYSKLSVPTSEWQRGDVFTCSVMHEALHNHYTQKSISRSPGK
light chain: AFELTQTPSSVEAAVGGTVTIRCQASQSISNQLSWYQQKPGQPPKRLIYRASTLASGVPARFKGSGSGTAFTLTISDLECADGATYYCQSFYYTDVIDYNAFGGGTEVVVTGDPVAPTVLIFPPAADQVATGTVTIVCVANKYFPDVTVTWEVDGTTQTTGIENSKTPQNSADCTYNLSSTLTLTSTQYNSHKEYTCKVTQGTTSVVQSFNRGDC
Work on B2 yielded an ELISA plate reading [15] of 0.08, an ELISA plate reading [16] of 0.12 and an ELISA plate reading [17] of 0.01. For the same binder, the ELISA plate reading [18] was 2.14, the ELISA plate reading [19] was 2.12 and the ELISA plate reading [20] was 2.1. The ELISA plate reading [21] was 0.06, the ELISA plate reading [22] was 0.68 and the ELISA plate reading [23] was 2.28. The ELISA plate reading [24] was 1.47, the ELISA plate reading [25] was 0.16 and the ELISA plate reading [26] was 0.15. The ELISA plate reading [27] was 0.07 and the ELISA plate reading [28] was 0.33.

B3: Original Heavy Chain (VH2) and Light Chain (VL2) that recognizes Antigen 2 (antibody, V domains shown)
VH: QSLEESGGRLVSPGTPLTLTCTASGFSLSSNAMGWVRQAPGEGLEYIGIIRPGGSTYYASWAKGRFTISKTSSTTVDLKMTSLTTEDTATYFCARAWDIWGPG
VL: AFELTQTPSSVEAAVGGTVTIRCQASQSISNQLSWYQQKPGQPPKRLIYRASTLASGVPARFKGSGSGTAFTLTISDLECADGATYYCQSFYYTDVIDYNAFGGGTEVVVTG
B3 gave an ELISA plate reading [29] of 0.09, an ELISA plate reading [30] of 0.94 and an ELISA plate reading [31] of 2.19. It also gave an ELISA plate reading [32] of 0.08, an ELISA plate reading [33] of 0.39 and an ELISA plate reading [34] of 0.08. It also gave an ELISA plate reading [35] of 0.12, an ELISA plate reading [36] of 0.1 and an ELISA plate reading [37] of 2.24. The ELISA plate reading [38] was 2.38, the ELISA plate reading [39] was 0.08 and the ELISA plate reading [40] was 1.68. The ELISA plate reading [41] was 0.08 and the ELISA plate reading [42] was 2.27.
